In article PMC8251270 (2021):

Target: recombinant receptor‐binding motif (RBM) of SARS‐CoV‐2 spike (S) protein, residue 437–508 (SARS-CoV-2, UniProt P0DTC2 437-508)
Test: SPR

B1: mAb8 (antibody, V domains shown)
VH: DVKLVESGGGLVKLGGSLKLSCAASGFTFSTDYMSWVRQSPEKRLELVAAINSNGGTTYYPDTVKGRFIISRDNAKNTLYLQMSSLRSEDTALYYCARQVKNGLDYWGQGTSVTVSS
VL: DIQMTQTTSSLSASLGDRVTISCRASQDISNYLNWYQQKPDGTVKLLIYKTSRLHSGVPSRFRGSGSGTDYSLTISNLEEEDVATYFCQQGNTLPPTFGGGTKLEIK
- Kd: 57.4 nM
